Measurements taken from patent US20230061804A1.

Target: mRFP1-ENLYFQS-(r8)8-Tail
Assay: live imaging of co-transfected HaCATs; client signal inside against outside KG-like granules

sfGFP-dTEVP
partition coefficient (P): 2.1
